From article PMC2744139

Target: Cdc13 full-length (FL) (Saccharomyces cerevisiae, UniProt P32797 1-924)
Assay: fluorescence anisotropy

Sequence of Cdc13 full-length (FL) (P32797 whole entry): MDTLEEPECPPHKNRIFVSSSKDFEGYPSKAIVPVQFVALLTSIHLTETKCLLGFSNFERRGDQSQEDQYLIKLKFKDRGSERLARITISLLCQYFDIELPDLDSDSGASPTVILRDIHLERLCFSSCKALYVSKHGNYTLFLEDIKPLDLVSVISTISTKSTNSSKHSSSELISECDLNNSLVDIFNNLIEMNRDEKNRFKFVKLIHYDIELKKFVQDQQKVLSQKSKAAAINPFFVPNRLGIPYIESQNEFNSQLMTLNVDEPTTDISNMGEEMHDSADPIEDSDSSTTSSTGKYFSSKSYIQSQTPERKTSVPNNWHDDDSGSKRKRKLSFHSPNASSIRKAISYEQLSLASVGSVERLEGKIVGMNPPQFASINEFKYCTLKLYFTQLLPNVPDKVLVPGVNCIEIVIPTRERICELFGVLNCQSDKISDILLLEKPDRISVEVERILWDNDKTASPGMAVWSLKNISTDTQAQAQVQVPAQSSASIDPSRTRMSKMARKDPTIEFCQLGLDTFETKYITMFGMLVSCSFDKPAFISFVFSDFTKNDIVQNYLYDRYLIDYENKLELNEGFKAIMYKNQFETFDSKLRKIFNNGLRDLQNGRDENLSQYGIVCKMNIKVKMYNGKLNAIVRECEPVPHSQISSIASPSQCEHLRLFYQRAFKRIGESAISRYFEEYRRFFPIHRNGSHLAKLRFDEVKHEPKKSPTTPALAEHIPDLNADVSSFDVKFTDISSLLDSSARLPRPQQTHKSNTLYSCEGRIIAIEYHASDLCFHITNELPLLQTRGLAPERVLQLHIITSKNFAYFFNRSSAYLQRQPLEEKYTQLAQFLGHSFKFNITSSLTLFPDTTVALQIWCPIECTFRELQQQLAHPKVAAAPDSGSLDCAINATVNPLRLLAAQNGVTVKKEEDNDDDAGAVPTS

B1: 7-base 3'-overhang telomeric DNA (mixed)
DNA: GTGGGTGTGTGTGTGGGGTGGTGTGTGTGG
?: CACCACCCCACACACACACCCAC
- binding result: no binding
